Results published in article PMC7567440 (2020).

Target: recombinant flagellin of Bacillus cereus HN001 (WR52_08290) (Bacillus cereus HN001)
Experiment: BLI

B1: pigeon ovomucoid (natural protein)
chain: VEVDCSRYHNTTNVEGREGLPCTKDFNPICGSDGVTYDNECLLCSYNREYGTNVSKDHDGQCREVIPVDCSKYPNVTNEEGRVALFCTENLRLVCGADGVTYDNECLLCARSLERGTRAGKKYDGECRREITTVDCSDHPQHACTLNYLPVCGSDSRTYSNRCNFCNAVVHSNGTLTLNYFGEC
modifications: terminal Galα1-4Gal residues; biotin (biotinylated POVO in the BLI assay)
B1 showed a koff of 0.000376 s⁻¹.
